Data published in US20240209106A1 (BEIGENE SWITZERLAND, published 2024).
One block for each binder: values may come before it.

Columns and labels:
[1] = biological target: T1, full-length human CD137 (huCD137) (human, UniProt Q07011 24-255); assay: flow cytometry ligand competition on Hut78/huCD137: BGA-4712 (VH-Fc) in the presence of serially diluted human CD137 ligand-mIgG2a, bound BGA-4712 detected with anti-hu IgG Fc; competitor: BGA-4712 [panel C]
T1 construct: On transduced Hut78 cells (Hut78/huCD137), transiently on HEK293 cells, or natively on PBMC/T cells; also called TNFRSF9; 4-1BB
T1 sequence (Q07011 24-255 limits assumed): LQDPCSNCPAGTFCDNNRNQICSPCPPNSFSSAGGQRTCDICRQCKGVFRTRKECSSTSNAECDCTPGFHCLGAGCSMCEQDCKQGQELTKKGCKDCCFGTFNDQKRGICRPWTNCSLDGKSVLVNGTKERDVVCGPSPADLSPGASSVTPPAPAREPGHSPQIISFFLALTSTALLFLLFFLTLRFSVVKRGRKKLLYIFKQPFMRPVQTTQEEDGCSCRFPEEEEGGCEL
Source text: Cell fluorescence was quantified using a flow cytometer (Guava easyCyte™ 8HT, Merck-Millipore, USA). Ligand competition was also applied in a flow cytometry based assay.

[2] = biological target: human CD137 ECD-mIgG2a (human); assay: competition ELISA on coated human CD137 ECD-mIgG2a: BGA-5623 (IgG4) in the presence of serially diluted human CD137 ligand ECD-mIgG2a, bound antibody detected with HRP anti-human IgG; competitor: BGA-5623 (IgG4)
Sequence of human CD137 ECD-mIgG2a (human) (chain, as listed by the source limits assumed): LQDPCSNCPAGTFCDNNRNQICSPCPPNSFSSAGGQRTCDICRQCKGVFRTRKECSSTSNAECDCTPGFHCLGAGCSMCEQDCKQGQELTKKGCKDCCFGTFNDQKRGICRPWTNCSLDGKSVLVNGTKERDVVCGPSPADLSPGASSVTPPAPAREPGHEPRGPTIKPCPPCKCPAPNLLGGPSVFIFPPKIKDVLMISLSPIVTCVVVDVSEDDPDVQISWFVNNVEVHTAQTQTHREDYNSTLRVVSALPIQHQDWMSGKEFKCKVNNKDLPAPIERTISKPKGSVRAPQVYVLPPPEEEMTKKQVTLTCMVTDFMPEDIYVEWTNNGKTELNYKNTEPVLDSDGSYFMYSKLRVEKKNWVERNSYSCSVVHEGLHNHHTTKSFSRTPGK

[3] = biological target: human CD137 ECD-mIgG2a (human); assay: SPR, human CD137 ECD-mIgG2a
[4] = biological target: T1, full-length human CD137 (huCD137); assay: flow cytometry on Hut78/huCD137 cells
[5] = biological target: human CD137 ECD-mIgG2a (human); assay: SPR, multispecific antibody captured on anti-human IgG Fc chip, human CD137 ECD-mIgG2a flowed over
Procedure: Briefly, anti-human IgG (Fc) antibody was immobilized on an activated CM5 biosensor chip (Cat.: BR100839, GE Life Sciences). Anti-huCD137 monoclonal antibodies or multispecific antibodies were flown through the chip surface and captured by anti-human IgG (Fc) antibody. […] The equilibrium dissociation constant (KD)) was calculated as the ratio koff/kₒₙ.

IC50 [1]: 0.42 µg/mL | IC50 (read off the curve) [2]: ~1 µg/mL
B1: human CD137 ligand-mIgG2a (Fc fusion)
chain: EPRGPTIKPCPPCKCPAPNLLGGPSVFIFPPKIKDVLMISLSPIVTCVVVDVSEDDPDVQISWFVNNVEVHTAQTQTHREDYNSTLRVVSALPIQHQDWMSGKEFKCKVNNKDLPAPIERTISKPKGSVRAPQVYVLPPPEEEMTKKQVTLTCMVTDFMPEDIYVEWTNNGKTELNYKNTEPVLDSDGSYFMYSKLRVEKKNWVERNSYSCSVVHEGLHNHHTTKSFSRTPGKGGGGSREGPELSPDDPAGLLDLRQGMFAQLVAQNVLLIDGPLSWYSDPGLAGVSLTGGLSYKEDTKELVVAKAGVYYVFFQLELRRVVAGEGSGSVSLALHLQPLRSAAGAAALALTVDLPPASSEARNSAFGFQGRLLHLSAGQRLGVHLHTEARARHAWQLTQGATVLGLFRVTPEIPAGLPSPRSE
notes: also called human CD137 ligand ECD-mIgG2a; huCD137 ligand

Kd [3]: 669 nM | EC50 [4]: 3.23 µg/mL | Kd [5]: 649 nM
B2: Format A-BGA-7556 (bispecific antibody, human IgG1, kappa)
heavy: QVQLVQSGAEVKKPGASVKVSCKASGYIFTSYYLHWVRQAPGQGLEWIGYINPQTGKTSYAQKFQGRVTMTRDTSTSTVYMELSSLRSEDTAVYYCAREYGNYNYPLDYWGQGTLVTVSSASTKGPSVFPLAPSSKSTSGGTAALGCLVKDYFPEPVTVSWNSGALTSGVHTFPAVLQSSGLYSLSSVVTVPSSSLGTQTYICNVNHKPSNTKVDKKVEPKSCDKTHTCPPCPAPPAAGPSVFLFPPKPKDTLMISRTPEVTCVVVDVSHEDPEVKFNWYVDGVEVHNAKTKPREEQYNSTYRVVSVLTVLHQDWLNGKEYKCKVSNKALAAPIEKTISKAKGQPREPQVYTLPPSREEMTKNQVSLTCLVKGFYPSDIAVEWESNGQPENNYKTTPPVLDSDGSFFLYSKLTVDKSRWQQGNVFSCSVMHEALHNHYTQKSLSLSPGKGGGGSEVQLLESGGGLVQPGGSLRLSCAASGFTLSAEDVGWVRQAPGKGLEWVSAILDFGGSTYYAESVKGRFTISRDNAKNTLYLQMSSLRAEDTAVYYCARVVYHAGGGVTFDYRGQGTQVTVSS
light: DIQMTQSPSSLSASVGDRVTITCRASENQYGYLAWYQQKPGKVPKLLIYNYKNLVEGVPSRFSGSGSGTDFTLTISSLQPEDVATYYCQHHLGTPYTFGQGTKVEIKRTVAAPSVFIFPPSDEQLKSGTASVVCLLNNFYPREAKVQWKVDNALQSGNSQESVTEQDSKDSTYSLSSTLTLSKADYEKHKVYACEVTHQGLSSPVTKSFNRGEC
notes: Light chain by the description of Format A; also called BGA-7556 in Format A-CD137 × CEA
